Data set [1] deals with the molecule itself. As to the kind of experiment: cryo-EM structure; native 100S ribosome dimers purified from S. aureus; 6.8 Å map of the 100S, 6.7 Å focused map of the dimer interface (C2 symmetry), 3.2 Å masked 30S map.
Data set [2] deals with the molecule itself. As to the kind of experiment: SEC; Superdex-200 Increase 10/300 GL; 20 mM Tris pH 7.9, 20 mM MgCl2, 250 mM NH4Cl, 10 mM KCl; 0.5 ml/min; 50 µg of purified HPFSA protein; apparent molecular weights from a standard curve. (In general: In gel filtration, larger molecules generally elute earlier.)

B1: S. aureus hibernating promoting factor (HPFSA), full length, in the native 100S ribosome (natural protein, UniProt Q2FIN9 1-190, looked up)
chain: MIRFEIHGDNLTITDAIRNYIEEKIGKLERYFNDVPNAVAHVKVKTYSNSATKIEVTIPLKNVTLRAEERNDDLYAGIDLINNKLERQVRKYKTRINRKSRDRGDQEVFVAELQEMQETQVDNDAYDDNEIEIIRSKEFSLKPMDSEEAVLQMNLLGHDFFVFTDRETDGTSIVYRRKDGKYGLIQTSEQ
notes: hibernating promoting factor (HPF), Staphylococcus aureus JE2 (USA300), full-length hpf under its native promoter; residues 1-190; first 100 residues modelled, C-terminal domain fitted as a homology model; Two copies in the 100S dimer, one for each 70S; also called long HPF; N-HPFSA (N-terminal domain); source: S. aureus hpf-knockout strain (USA300, JE2) with plasmid pLI50hpf; isolated with the …
As to B1, the binding result in data set [1] was “binds”.

B2: recombinant His-tagged full-length HPF (HPFSA) (natural protein, S. aureus, UniProt Q2FIN9 1-190, looked up)
chain: MIRFEIHGDNLTITDAIRNYIEEKIGKLERYFNDVPNAVAHVKVKTYSNSATKIEVTIPLKNVTLRAEERNDDLYAGIDLINNKLERQVRKYKTRINRKSRDRGDQEVFVAELQEMQETQVDNDAYDDNEIEIIRSKEFSLKPMDSEEAVLQMNLLGHDFFVFTDRETDGTSIVYRRKDGKYGLIQTSEQ
notes: hibernating promoting factor (HPF), Staphylococcus aureus, full length; also called full-length HPFSA protein; source: E. coli BL21(DE3), pET28a, purified
Take B2: the binding result in data set [2] is recorded as “binds”.

(Values after article PMC5620080, “The cryo-EM structure of hibernating 100S ribosome dimer from pathogenic Staphylococcus aureus” (Nature Communications, 2017).)
